Results: patent publication US20240254223A1 (NOVIMMUNE, published 2024)

T1: high affinity trimeric IL-2R (IL-2Rα, IL-2Rβ and IL-2Rγ) on HEK-Blue IL-2 cells (UniProt P01589 22-272; P14784 27-551; P31785 23-369)
T1 sequence (looked up) 1: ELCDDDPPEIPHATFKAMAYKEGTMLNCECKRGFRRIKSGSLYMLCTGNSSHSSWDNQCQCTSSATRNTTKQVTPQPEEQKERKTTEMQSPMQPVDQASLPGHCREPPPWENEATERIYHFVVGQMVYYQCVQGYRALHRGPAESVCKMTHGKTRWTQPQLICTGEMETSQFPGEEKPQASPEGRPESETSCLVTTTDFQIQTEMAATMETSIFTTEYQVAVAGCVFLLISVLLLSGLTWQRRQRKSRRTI
T1 sequence (looked up) 2: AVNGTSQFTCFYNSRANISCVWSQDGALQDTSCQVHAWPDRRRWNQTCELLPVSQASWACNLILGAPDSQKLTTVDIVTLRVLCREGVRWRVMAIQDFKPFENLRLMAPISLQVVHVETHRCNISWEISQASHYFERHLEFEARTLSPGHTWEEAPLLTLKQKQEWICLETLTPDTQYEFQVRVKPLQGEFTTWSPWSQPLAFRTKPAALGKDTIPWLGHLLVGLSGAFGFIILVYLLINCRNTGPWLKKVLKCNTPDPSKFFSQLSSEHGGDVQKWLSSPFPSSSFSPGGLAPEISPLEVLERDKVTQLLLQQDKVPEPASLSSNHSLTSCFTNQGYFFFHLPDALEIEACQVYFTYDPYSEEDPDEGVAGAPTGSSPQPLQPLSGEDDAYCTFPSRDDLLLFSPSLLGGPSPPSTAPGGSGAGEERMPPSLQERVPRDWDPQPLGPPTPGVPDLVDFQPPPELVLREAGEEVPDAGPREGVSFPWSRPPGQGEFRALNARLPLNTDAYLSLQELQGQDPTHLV
T1 sequence (looked up) 3: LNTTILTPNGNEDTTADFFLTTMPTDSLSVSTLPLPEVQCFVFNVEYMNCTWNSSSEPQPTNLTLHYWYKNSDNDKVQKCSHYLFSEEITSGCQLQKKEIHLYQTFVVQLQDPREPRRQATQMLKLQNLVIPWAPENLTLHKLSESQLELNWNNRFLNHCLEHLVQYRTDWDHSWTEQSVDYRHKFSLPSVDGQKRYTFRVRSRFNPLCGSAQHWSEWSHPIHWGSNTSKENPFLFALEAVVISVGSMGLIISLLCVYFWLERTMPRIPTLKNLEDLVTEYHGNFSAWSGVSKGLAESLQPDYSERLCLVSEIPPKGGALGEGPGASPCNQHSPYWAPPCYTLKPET

T2: low-moderate affinity dimeric IL-2R (IL-2Rβ and IL-2Rγ) on HEK-Blue CD122/CD132 cells (UniProt P14784 27-551; P31785 23-369, limits assumed)
T2 sequence (looked up) 1: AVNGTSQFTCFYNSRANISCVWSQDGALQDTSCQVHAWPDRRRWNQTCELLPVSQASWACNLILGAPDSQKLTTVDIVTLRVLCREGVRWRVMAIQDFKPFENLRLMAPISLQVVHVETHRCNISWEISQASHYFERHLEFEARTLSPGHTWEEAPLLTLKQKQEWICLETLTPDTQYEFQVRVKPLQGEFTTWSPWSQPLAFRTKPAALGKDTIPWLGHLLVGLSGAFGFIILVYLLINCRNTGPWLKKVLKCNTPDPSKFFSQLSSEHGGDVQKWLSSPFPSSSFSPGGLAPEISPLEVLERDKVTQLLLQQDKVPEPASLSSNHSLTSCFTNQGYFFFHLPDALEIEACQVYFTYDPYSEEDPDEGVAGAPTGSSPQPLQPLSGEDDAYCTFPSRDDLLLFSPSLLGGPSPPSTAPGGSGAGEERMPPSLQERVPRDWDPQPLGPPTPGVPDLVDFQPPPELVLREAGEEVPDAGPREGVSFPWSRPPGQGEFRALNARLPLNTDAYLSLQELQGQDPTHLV
T2 sequence (looked up) 2: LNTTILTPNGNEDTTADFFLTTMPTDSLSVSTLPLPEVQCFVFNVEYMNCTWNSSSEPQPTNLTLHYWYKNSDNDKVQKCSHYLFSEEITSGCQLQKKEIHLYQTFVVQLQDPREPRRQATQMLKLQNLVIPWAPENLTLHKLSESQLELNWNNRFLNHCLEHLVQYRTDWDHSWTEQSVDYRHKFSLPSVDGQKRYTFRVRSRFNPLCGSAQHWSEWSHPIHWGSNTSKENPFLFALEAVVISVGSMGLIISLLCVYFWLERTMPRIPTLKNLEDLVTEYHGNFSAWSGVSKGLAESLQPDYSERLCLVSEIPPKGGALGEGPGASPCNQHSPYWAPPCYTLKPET


What was measured:
[1] = target: T1, high affinity trimeric IL-2R (IL-2Rα, …); assay: cell-based or functional assay
[2] = target: T2, low-moderate affinity dimeric IL-2R …; assay: cell-based or functional assay
[3] = target: T3, CD47 at the surface of Peak cells (human, UniProt Q08722 19-323); assay: flow cytometry, Peak cells, after MMP-9 treatment
T3 construct: whole, on cells; also called cell surface CD47
Experimental: Binding activity of antibody-cytokine/receptor fusions before and after cleavage was also evaluated by flow cytometry. Peak cells derived from HEK 293 which are human cells expressing CD47 were used to evaluate masking efficacy and binding recovery to CD47 by flow cytometry. Peak cells were diluted in cold FACS buffer (PBS, 2% BSA) to 1.2×10⁶ cells/mL. 3×10⁵ cells/well were added in a 96 well V-bottom plate. The plate was then centrifugated for 5 min at 1300 rpm, 4° C. Supernatants were removed and cells were washed twice using FACS buffer. A serial dilution of antibody-cytokine/receptor fusions previously digested with MMP-9 or not digested as described above was prepared in FACS buffer. An irrelevant antibody was included. Then, 150 μL of each diluted antibody were added in corresponding well and incubated for 30 min at 4° C. Cells were washed twice with FACS buffer and 100 μL of a mouse anti human Fc-PE conjugated secondary antibody were added and the plate was incubated for 20 min at 4° C. Cells were then washed twice with FACS buffer. Finally, 150 μL of SYTOX blue dead cell stain (ThermoFisher) diluted to 1/5000 in FACS buffer were added before detection by flow cytometry with Cytoflex (Beckman Coulter). Acquisition was performed with 10000 events for each well. Data were analyzed by FlowJo software.

His-tagged human CD47 [4] = target: T4, His-tagged human CD47 (human, UniProt Q08722 19-139, limits assumed); assay: BLI, His-CD47 on HIS1K sensor, after MMP-9 treatment
T4 construct: loaded on HIS1K biosensors at 2.5 µg/mL; also called target antigen; not shown: His tag
Experimental: (§1) The capacity of the masking domains to inhibit binding activity of the antibody was evaluated by Bio-Layer Interferometry (BLI). […] Binding experiments were performed to evaluate the masking efficiency and the binding recovery after cleavage of the masking domains. BLI was performed on an Octet RED96 system (Sartorius). His-tagged human CD47 was diluted at 2.5 μg/mL in Kinetic Buffer (KB) (Sartorius) and loaded on HIS1K biosensors (anti-His tag antibody biosensors, Sartorius) for 300 seconds. Loaded biosensors were dipped into antibodies diluted at 15 μg/mL in KB for 300 seconds to monitor association. Then, biosensors were transferred in KB for dissociation for 60 seconds. Binding profiles were then analyzed with ForteBio Data Analysis software.

His-tagged human CD47 [5] = target: T4, His-tagged human CD47; assay: BLI, His-CD47 on HIS1K sensor, antibody 15 µg/mL
Experimental: as §1

Row | Binder | EC50 after cleavage IL-2, HEK Blue IL-2 αβγ reporter assay [1] | EC50 after cleavage IL-2, HEK Blue IL-2 βγ reporter assay [2] | EC50 [3] | Binding after cleavage (BLI) (His-tagged human CD47 [4]) | Binding before cleavage (BLI) (His-tagged human CD47 [5])
1 | Construct No 870 after cleavage by MMP-9 (antibody, MMP-9 digest of m33; the sample also holds the released IL-2Rγ, IL-2 and IL-2Rα; also called n870 after cleavage; not shown: remnant of CM1 and linker after MMP-9 cleavage) light: DIQMTQSPSSLSASVGDRVTITCNVDQVIANWLNWYQQKPGKAPKLLIYAASSLQSGVPSRFSGSGSGTDFTLTISSLQPEDFATYYCQQMHPRAPKQFGQGTKVEIKRTVAAPSVFIFPPSDEQLKSGTASVVCLLNNFYPREAKVQWKVDNALQSGNSQESVTEQDSKDSTYSLSSTLTLSKADYEKHKVYACEVTHQGLSSPVTKSFNRGEC heavy: not shown | 10 pM | 30 pM | 1300 pM | 1.3 nm | 
2 | Construct No 676 after cleavage by MMP-9 (antibody, MMP-9 digest of m23; the sample also holds the released IL-2Rα-(GGGGS)2-IL-2 fusion (no cleavable linker between the two) and IL-2Rβ; also called n676 after cleavage; not shown: remnant of CM1 and linker after MMP-9 cleavage) light: DIQMTQSPSSLSASVGDRVTITCNVDQVIANWLNWYQQKPGKAPKLLIYAASSLQSGVPSRFSGSGSGTDFTLTISSLQPEDFATYYCQQMHPRAPKQFGQGTKVEIKRTVAAPSVFIFPPSDEQLKSGTASVVCLLNNFYPREAKVQWKVDNALQSGNSQESVTEQDSKDSTYSLSSTLTLSKADYEKHKVYACEVTHQGLSSPVTKSFNRGEC heavy: not shown | 40 pM | 30 pM | 1000 pM | 1.5 nm | 
3 | Construct No 651 after cleavage by MMP-9 (antibody, MMP-9 digest of m22; the sample also holds the released IL-2Rα, IL-2 and IL-2Rβ; also called n651 after cleavage; not shown: remnant of CM1 and linker after MMP-9 cleavage) light: DIQMTQSPSSLSASVGDRVTITCNVDQVIANWLNWYQQKPGKAPKLLIYAASSLQSGVPSRFSGSGSGTDFTLTISSLQPEDFATYYCQQMHPRAPKQFGQGTKVEIKRTVAAPSVFIFPPSDEQLKSGTASVVCLLNNFYPREAKVQWKVDNALQSGNSQESVTEQDSKDSTYSLSSTLTLSKADYEKHKVYACEVTHQGLSSPVTKSFNRGEC heavy: not shown | 20 pM | 10 pM | 700 pM | 1.6 nm | 

Second part, the binder after the results:

Row | EC50 after cleavage IL-2, HEK Blue IL-2 αβγ reporter assay [1] | EC50 after cleavage IL-2, HEK Blue IL-2 βγ reporter assay [2] | EC50 [3] | Binding after cleavage (BLI) (His-tagged human CD47 [4]) | Binding before cleavage (BLI) (His-tagged human CD47 [5]) | Binder
4 | 20 pM | 10 pM | 500 pM | 1.7 nm |  | Construct No 770 after cleavage by MMP-9 (antibody, MMP-9 digest of m28; the sample also holds the released IL-2Rα, IL-2 C125S and IL-2Rβ; also called n770 after cleavage; not shown: remnant of CM1 and linker after MMP-9 cleavage) light: DIQMTQSPSSLSASVGDRVTITCNVDQVIANWLNWYQQKPGKAPKLLIYAASSLQSGVPSRFSGSGSGTDFTLTISSLQPEDFATYYCQQMHPRAPKQFGQGTKVEIKRTVAAPSVFIFPPSDEQLKSGTASVVCLLNNFYPREAKVQWKVDNALQSGNSQESVTEQDSKDSTYSLSSTLTLSKADYEKHKVYACEVTHQGLSSPVTKSFNRGEC heavy: not shown
5 | 20 pM | 10 pM | 200 pM | 1.7 nm |  | Construct No 41 after cleavage by MMP-9 (antibody, MMP-9 digest of m8; the sample also holds the released IL-2 and IL-2Rα; also called n41 after cleavage; not shown: remnant of CM1 and linker after MMP-9 cleavage) light: DIQMTQSPSSLSASVGDRVTITCNVDQVIANWLNWYQQKPGKAPKLLIYAASSLQSGVPSRFSGSGSGTDFTLTISSLQPEDFATYYCQQMHPRAPKQFGQGTKVEIKRTVAAPSVFIFPPSDEQLKSGTASVVCLLNNFYPREAKVQWKVDNALQSGNSQESVTEQDSKDSTYSLSSTLTLSKADYEKHKVYACEVTHQGLSSPVTKSFNRGEC heavy: not shown
6 |  |  |  |  | 2.2 nm | pNOVI V2K K91_IL-2 CM1_CM2_VHCH (antibody, human IgG1, kappa, masked K91 fusion, uncleaved; also called n17; construct No 17) light: DIQMTQSPSSLSASVGDRVTITCNVDQVIANWLNWYQQKPGKAPKLLIYAASSLQSGVPSRFSGSGSGTDFTLTISSLQPEDFATYYCQQMHPRAPKQFGQGTKVEIKRTVAAPSVFIFPPSDEQLKSGTASVVCLLNNFYPREAKVQWKVDNALQSGNSQESVTEQDSKDSTYSLSSTLTLSKADYEKHKVYACEVTHQGLSSPVTKSFNRGEC heavy: not shown
